Data set [1] is described as follows: Stability of powders at 25° C. and 40° C. (HPLC purity over time).
Method: (§1) In Example 29, the HPLC chromatographic separation conditions were as follows: • Chromatographic column: Octadecyl bonded silica gel as filler 4.6*250 mm, 5 m • Mobile phase A: Acetonitrile (containing 0.09% trifluoroacetic acid) • Mobile phase B: 0.1% trifluoroacetic acid • Diluent: water • Flow rate: 1.0 ml/min; • Column temperature: 35° C.; • Detection wavelength: 215 nm; • Injection volume: 10 μl; • Running time: 32 min • Gradient elution table:
(§2) The test solution: Take an appropriate amount of this product and add water to dissolve and dilute to make a solution containing 1 mg per 1 ml.
In data set [2] the test system is IL-6. Briefly: Anti-inflammatory repair experiment, LPS-stimulated RAW264.7 cells, ELISA IL-6. As to conditions: 100 ppm, 200 ng/mL LPS, 48 h, vs LPS group. It is filed as cell-based, mouse. The text has this:
Mouse mononuclear macrophages (RAW264.7 cells).
Peptide (2), tested at a concentration of 100 ppm.
• a) Take RAW264.7 cells in good exponential growth phase, add 0.25% trypsin digestion solution, digest to make adherent cells fall off, count 1-4×10^6 cells/mL, and make cell suspension; • b) Appropriately dilute 100,000 cells/well of cell suspension and inoculate it on a 6-well plate, and establish an LPS-stimulated inflammation model when the cells reached about 80% confluent. Set blank control group (control), LPS group, dexamethasone group (DXM), polypeptide group. Add 1000 μL culture medium to the blank control group; add 200 ng/mL LPS to the LPS group, add culture medium to 1000 μL; add 200 ng/mL LPS and 50 ng/mL dexamethasone to the dexamethasone group, add culture medium to 1000 μL; add 200 ng/mL LPS and peptide (2) to the polypeptide group, add culture medium to 1000 μL (final test concentration of peptide is 100 ppm). […] The OD value of each well was sequentially measured at 450 nm with a microplate reader within 15 min after the reaction was terminated. […]

Data set [3] can be described thus: Stability of aqueous solutions (HPLC purity over time). It is filed as physicochemical.
Method: as §1, §2
In data set [4] the test system is HaCaT cells. Briefly: Promoting cell adhesion test (MTT after three-dimensional force). It is filed as cell-based, human. To be noted: 12.5, 25, 50, 100 ppm coated plate, vs normal control group. On the procedure: Human keratinocytes (HaCaT) were purchased from the Kunming Cell Bank of the Type Culture Collection Committee of the Chinese Academy of Sciences.
Dissolve with PBS solution.
The cryopreserved HaCaT human cuticle cells were cultured, subcultured at a ratio of 1:2 to about 5 passages, and the cells with better growth were selected as the experimental objects.
The sample to be tested was added to a 96-well plate at a rate of 20 μL/well, and dried overnight in a constant temperature oven at 37° C. […] Set the detection wavelength to 490 nm, the reference wavelength to 630 nm, and use a microplate reader to read the OD value.
By selecting HaCaT cells, plate them in a drug-coated 96-well plate, and after incubation and a period of three-dimensional force, the cells with strong adhesion can be maintained on the 96-well plate. By performing MTT quantitative analysis on the live cells on the plate, that is, the effect of the drug on cell adhesion can be evaluated to determine whether the peptide of the present invention can improve cell elasticity. After three-dimensional force action, the more living cells remained on the 96-well plate, the greater the measured OD value, indicating the stronger the adhesion of the cells.

The test system of data set [5] is NIH3T3 cells. Description: UVB light damage repair experiment (MTT), NIH3T3. It counts as cell-based, mouse. As to conditions: UVB irradiated, each dose of 12.5 ppm-100 ppm, 24 hours. The protocol: Human keratinocytes (HaCaT) were purchased from the Kunming Cell Bank of the Type Culture Collection Committee of the Chinese Academy of Sciences, and mouse skin fibroblasts (NIH3T3) were purchased from the Shanghai Cell Bank of the Type Culture Collection Committee of the Chinese Academy of Sciences.
Take cells in good exponential growth phase, add 0.25% trypsin digestion solution, digest to make adherent cells fall off, count 1×10^5-4×10^5 cells/mL, and make cell suspension.
Cells were seeded into 96-well plates at 10,000 cells/well, and the UVB photodamage model was established when the cells reached about 80% confluent. […]
After 24 hours, add 22 μL of 5 mg/mL MTT to each well, place in an incubator and incubate for 4 hours, discard the original solution, and add 150 μL/well of DMSO. After 5 minutes, use a microplate reader to read the reference OD values at 490 nm and 630 nm wavelengths.
By establishing a UVB light-damaged cell model, administering 24 hours after ultraviolet light irradiation, and using the MTT method to detect cell proliferation activity, the ability of the peptide of the present invention to repair light-damaged cells was evaluated.

As for “H-Ala-Pro-Phe-Arg-Met-Gly-Ile-Met-Thr-Thr-Asn-OH (H-APFRMGIMTTN-OH) [Peptide (2)]”, the “powder (purity)” value in data set [1] (25° C., Day 20) is 99.146%; in data set [1] (40° C., Day 20, listed as Peptide(2)), 98.583%; in data set [1] (40° C., Day 20, listed as peptide (2)) it was “remained unchanged”; in data set [1] (powder, Day 0) it was 99.291%. In addition, the “expression of IL-6” value in data set [2] is “significantly down-regulated”. Besides, the “aqueous solution (purity)” value is given as 99.122% in data set [3] (Day 8 at room temperature); 98.045% in data set [3] (Day 18 at room temperature); “did not change significantly” in data set [3] (Day 18 at room temperature, listed as peptide (2)); 99.291% in data set [3] (Solution, Day 0). For the same substance, the “adhesion ability of HaCaT cells” value in data set [4] is recorded as “could improve the adhesion ability of HaCaT cells”. Moreover, in data set [5], the “activity of photodamaged NIH3T3 cells (MTT)” value is reported as “can significantly increase NIH3T3 cell activity”.
